Drawing on paper PMC6826516, this text covers response (fold over LgBiT-TEAD1 alone) for two molecules.

For test [1], the target named is T1, LgBiT-TEAD1-Myc (TEAD1 aa 194-411), mutant, P28347-1.
T1 chain: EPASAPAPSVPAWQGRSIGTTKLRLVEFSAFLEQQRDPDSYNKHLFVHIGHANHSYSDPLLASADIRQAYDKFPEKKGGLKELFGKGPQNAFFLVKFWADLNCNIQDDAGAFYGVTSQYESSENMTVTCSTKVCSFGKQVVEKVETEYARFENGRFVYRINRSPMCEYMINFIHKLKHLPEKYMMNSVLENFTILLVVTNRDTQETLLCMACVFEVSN
Put plainly: NanoBiT assay (split-luciferase biosensor) in lysates of transfected HEK293T cells. The conditions noted are these: chain shown with the change; 48 h after transfection; equal amounts of each biosensor plasmid; parent: est. 1300; read off a plot.

The target in test [2] is T2, LgBiT-TEAD-His fusion protein (TEAD1 aa 194-411), mutant, P28347-1.
T2 chain: T1 chain
Put plainly: NanoBiT assay (split-luciferase biosensor) with purified His-tagged fusion proteins in vitro. The conditions noted are these: chain shown with the change; 100 ng of each construct; mixed and incubated for 5 min before substrate; parent: est. 59; read off a plot.

B1: m5; m2 TAZ:W43A; TAZ:K46A; TAZ:L48A; TAZ:S51A; TAZ:F52A; TAZ:F53A; TEAD1:E255A; TEAD1:V257A; TEAD1:I262A (protein)
chain: PGQQVIHVTQDLDTDLEALFNSVMNPKPSSARKAIAPEAAAKEPDSGSHSRQSSTDSSGGHPGPRLAGGAQHVRSHSSPASLQLGTGAGAAGSPAQQHAHLRQQSYD
As to B1, in test [1], the response (fold over LgBiT-TEAD1 alone) amounted to 19.

B2: m17; m14 TAZ:W43A; TAZ:K46A; TAZ:L48A; TAZ:S51A; TAZ:F52A; TAZ:F53A; TEAD1:E255A; TEAD1:V257A; TEAD1:I262A (protein)
chain: B1 chain
As for B2, the response (fold over LgBiT-TEAD1 alone) in test [2] worked out at 12.
